In US20220370632A1 (HEIDELBERG PHARMA RESEARCH, published 2022):

Key:
[1] = molecular target: T1, human CD37 on CD37-positive human cell lines (MEC-1, MEC-2, Raji, Ramos) (human, UniProt P11049 1-281); experiment: cell-based or functional assay
T1 sequence: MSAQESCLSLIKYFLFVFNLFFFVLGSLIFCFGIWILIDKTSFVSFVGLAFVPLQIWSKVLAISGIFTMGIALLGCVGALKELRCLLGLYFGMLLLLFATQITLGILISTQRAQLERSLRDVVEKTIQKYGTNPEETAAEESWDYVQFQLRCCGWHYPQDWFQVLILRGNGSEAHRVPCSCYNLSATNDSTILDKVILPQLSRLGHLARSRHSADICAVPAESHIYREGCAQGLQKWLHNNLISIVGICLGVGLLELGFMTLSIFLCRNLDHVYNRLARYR

[2] = molecular target: T1, human CD37 on CD37-positive human cell …; experiment: flow cytometry (FACS) on Ramos cells, median fluorescence against antibody concentration
[3] = molecular target: T1, human CD37 on CD37-positive human cell …; experiment: flow cytometry (FACS) on MEC-2 cells, median fluorescence against antibody concentration

B1: chHH1-HDP-(XV) (antibody)
heavy: not shown
light: DIVMTQSHKLLSTSVGDRVSITCKASQDVSTAVDWYQQKPGQSPKLLINWASTRHTGVPDRFTGSGSGTDYTLTISSMQAEDLALYYCRQHYSTPFTFGSGTKLEIKRTVAAPSVFIFPPSDEQLKSGTASVVCLLNNFYPREAKVQWKVDNALQSGNSQESVTEQDSKDSTYSLSSTLTLSKADYEKHKVYACEVTHQGLSSPVTKSFNRGEC
modifications: amatoxin-linker moiety of formula (XV), DAR 3.36; cysteine residues carrying it not stated
EC 50 [M], cytotoxicity in vitro on MEC-2 cells [1]: 6.06e-08 M | EC 50 [M], cytotoxicity in vitro on Raji cells [1]: 6.1e-10 M | EC 50 [M], cytotoxicity in vitro on Ramos cells [1]: 8.5e-11 M

B2: chHH1-HDP-D265C-(XV) (antibody)
heavy: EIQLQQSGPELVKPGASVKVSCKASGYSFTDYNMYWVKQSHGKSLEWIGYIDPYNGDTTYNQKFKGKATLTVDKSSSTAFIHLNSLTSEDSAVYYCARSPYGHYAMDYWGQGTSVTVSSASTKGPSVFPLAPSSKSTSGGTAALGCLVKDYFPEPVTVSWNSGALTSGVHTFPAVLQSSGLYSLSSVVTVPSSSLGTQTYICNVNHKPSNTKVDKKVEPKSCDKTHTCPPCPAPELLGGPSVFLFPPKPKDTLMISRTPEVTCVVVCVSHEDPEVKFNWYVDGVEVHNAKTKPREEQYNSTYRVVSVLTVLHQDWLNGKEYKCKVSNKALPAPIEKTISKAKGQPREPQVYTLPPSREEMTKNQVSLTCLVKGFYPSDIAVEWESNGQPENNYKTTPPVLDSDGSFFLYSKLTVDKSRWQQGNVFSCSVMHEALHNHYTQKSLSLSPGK
light: DIVMTQSHKLLSTSVGDRVSITCKASQDVSTAVDWYQQKPGQSPKLLINWASTRHTGVPDRFTGSGSGTDYTLTISSMQAEDLALYYCRQHYSTPFTFGSGTKLEIKRTVAAPSVFIFPPSDEQLKSGTASVVCLLNNFYPREAKVQWKVDNALQSGNSQESVTEQDSKDSTYSLSSTLTLSKADYEKHKVYACEVTHQGLSSPVTKSFNRGEC
modifications: amatoxin-linker moiety of formula (XV) on heavy chain 265Cys (EU numbering); DAR 2.80
EC 50 [M], cytotoxicity in vitro on MEC-2 cells [1]: 1.11e-08 M | EC 50 [M], cytotoxicity in vitro on Raji cells [1]: 1.63e-09 M | EC 50 [M], cytotoxicity in vitro on Ramos cells [1]: 4.7e-10 M

B3: chHH1-HDP-D265C-(XII) (antibody)
heavy: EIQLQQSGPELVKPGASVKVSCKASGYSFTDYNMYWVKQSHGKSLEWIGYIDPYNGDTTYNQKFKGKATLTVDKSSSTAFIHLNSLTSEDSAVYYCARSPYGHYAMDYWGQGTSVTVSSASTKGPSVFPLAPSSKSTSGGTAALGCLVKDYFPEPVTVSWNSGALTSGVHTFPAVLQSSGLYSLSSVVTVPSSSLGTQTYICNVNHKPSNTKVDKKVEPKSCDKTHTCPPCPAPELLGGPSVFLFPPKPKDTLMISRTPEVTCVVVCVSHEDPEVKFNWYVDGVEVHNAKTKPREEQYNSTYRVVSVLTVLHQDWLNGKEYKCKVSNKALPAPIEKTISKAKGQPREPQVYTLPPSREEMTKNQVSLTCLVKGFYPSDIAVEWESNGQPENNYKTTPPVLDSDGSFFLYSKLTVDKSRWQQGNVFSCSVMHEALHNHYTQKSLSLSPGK
light: DIVMTQSHKLLSTSVGDRVSITCKASQDVSTAVDWYQQKPGQSPKLLINWASTRHTGVPDRFTGSGSGTDYTLTISSMQAEDLALYYCRQHYSTPFTFGSGTKLEIKRTVAAPSVFIFPPSDEQLKSGTASVVCLLNNFYPREAKVQWKVDNALQSGNSQESVTEQDSKDSTYSLSSTLTLSKADYEKHKVYACEVTHQGLSSPVTKSFNRGEC
modifications: amatoxin-linker moiety of formula (XII) on heavy chain 265Cys (EU numbering); DAR 2.03
EC 50 [M], cytotoxicity in vitro on MEC-2 cells [1]: 2.14e-08 M | EC 50 [M], cytotoxicity in vitro on Raji cells [1]: 3.9e-09 M | EC 50 [M], cytotoxicity in vitro on Ramos cells [1]: 2.2e-10 M

B4: chHH1-HDP-(XIII) (antibody)
heavy: not shown
light: DIVMTQSHKLLSTSVGDRVSITCKASQDVSTAVDWYQQKPGQSPKLLINWASTRHTGVPDRFTGSGSGTDYTLTISSMQAEDLALYYCRQHYSTPFTFGSGTKLEIKRTVAAPSVFIFPPSDEQLKSGTASVVCLLNNFYPREAKVQWKVDNALQSGNSQESVTEQDSKDSTYSLSSTLTLSKADYEKHKVYACEVTHQGLSSPVTKSFNRGEC
modifications: amatoxin-linker moiety of formula (XIII); DAR printed as '-'; cysteine residues carrying it not stated
EC 50 [M], cytotoxicity in vitro on MEC-2 cells [1]: 5.59e-10 M | EC 50 [M], cytotoxicity in vitro on Raji cells [1]: 4.8e-10 M | EC 50 [M], cytotoxicity in vitro on Ramos cells [1]: 5.6e-11 M

B5: chHH1-HDP-D265C-(XIII) (antibody)
heavy: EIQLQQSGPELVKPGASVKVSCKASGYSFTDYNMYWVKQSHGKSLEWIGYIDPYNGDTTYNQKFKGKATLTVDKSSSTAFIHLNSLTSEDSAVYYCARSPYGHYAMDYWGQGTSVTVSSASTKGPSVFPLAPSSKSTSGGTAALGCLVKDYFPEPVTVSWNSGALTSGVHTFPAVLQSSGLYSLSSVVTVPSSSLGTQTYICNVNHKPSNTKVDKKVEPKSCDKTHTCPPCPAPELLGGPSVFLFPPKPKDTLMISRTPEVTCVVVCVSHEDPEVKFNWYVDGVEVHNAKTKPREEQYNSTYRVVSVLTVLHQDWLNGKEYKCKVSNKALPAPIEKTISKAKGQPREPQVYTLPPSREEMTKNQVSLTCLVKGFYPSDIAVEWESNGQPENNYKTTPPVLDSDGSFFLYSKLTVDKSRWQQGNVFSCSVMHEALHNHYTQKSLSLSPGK
light: DIVMTQSHKLLSTSVGDRVSITCKASQDVSTAVDWYQQKPGQSPKLLINWASTRHTGVPDRFTGSGSGTDYTLTISSMQAEDLALYYCRQHYSTPFTFGSGTKLEIKRTVAAPSVFIFPPSDEQLKSGTASVVCLLNNFYPREAKVQWKVDNALQSGNSQESVTEQDSKDSTYSLSSTLTLSKADYEKHKVYACEVTHQGLSSPVTKSFNRGEC
modifications: amatoxin-linker moiety of formula (XIII) on heavy chain 265Cys (EU numbering); DAR 1.96
EC 50 [M], cytotoxicity in vitro on MEC-2 cells [1]: 5.41e-09 M | EC 50 [M], cytotoxicity in vitro on Raji cells [1]: 6.2e-10 M | EC 50 [M], cytotoxicity in vitro on Ramos cells [1]: 1.1e-10 M

B6: chHH1-HDP-LALA-D265C (antibody, human IgG1, kappa, L234A L235A)
heavy: EIQLQQSGPELVKPGASVKVSCKASGYSFTDYNMYWVKQSHGKSLEWIGYIDPYNGDTTYNQKFKGKATLTVDKSSSTAFIHLNSLTSEDSAVYYCARSPYGHYAMDYWGQGTSVTVSSASTKGPSVFPLAPSSKSTSGGTAALGCLVKDYFPEPVTVSWNSGALTSGVHTFPAVLQSSGLYSLSSVVTVPSSSLGTQTYICNVNHKPSNTKVDKKVEPKSCDKTHTCPPCPAPEAAGGPSVFLFPPKPKDTLMISRTPEVTCVVVCVSHEDPEVKFNWYVDGVEVHNAKTKPREEQYNSTYRVVSVLTVLHQDWLNGKEYKCKVSNKALPAPIEKTISKAKGQPREPQVYTLPPSREEMTKNQVSLTCLVKGFYPSDIAVEWESNGQPENNYKTTPPVLDSDGSFFLYSKLTVDKSRWQQGNVFSCSVMHEALHNHYTQKSLSLSPGK
light: DIVMTQSHKLLSTSVGDRVSITCKASQDVSTAVDWYQQKPGQSPKLLINWASTRHTGVPDRFTGSGSGTDYTLTISSMQAEDLALYYCRQHYSTPFTFGSGTKLEIKRTVAAPSVFIFPPSDEQLKSGTASVVCLLNNFYPREAKVQWKVDNALQSGNSQESVTEQDSKDSTYSLSSTLTLSKADYEKHKVYACEVTHQGLSSPVTKSFNRGEC
notes: Unconjugated chimeric antibody; Expressed in CHO or HEK293 cells; also called anti-CD37 monoclonal antibody chHH1-LALA-D265C; anti-CD37 chHH1-HDP-LALA-D265C
EC50 (read off the curve) [2]: ~1 µg/mL | EC50 (read off the curve) [3]: ~3 µg/mL

B7: conjugate XXIV (antibody)
heavy: EIQLQQSGPELVKPGASVKVSCKASGYSFTDYNMYWVKQSHGKSLEWIGYIDPYNGDTTYNQKFKGKATLTVDKSSSTAFIHLNSLTSEDSAVYYCARSPYGHYAMDYWGQGTSVTVSSASTKGPSVFPLAPSSKSTSGGTAALGCLVKDYFPEPVTVSWNSGALTSGVHTFPAVLQSSGLYSLSSVVTVPSSSLGTQTYICNVNHKPSNTKVDKKVEPKSCDKTHTCPPCPAPEAAGGPSVFLFPPKPKDTLMISRTPEVTCVVVCVSHEDPEVKFNWYVDGVEVHNAKTKPREEQYNSTYRVVSVLTVLHQDWLNGKEYKCKVSNKALPAPIEKTISKAKGQPREPQVYTLPPSREEMTKNQVSLTCLVKGFYPSDIAVEWESNGQPENNYKTTPPVLDSDGSFFLYSKLTVDKSRWQQGNVFSCSVMHEALHNHYTQKSLSLSPGK
light: DIVMTQSHKLLSTSVGDRVSITCKASQDVSTAVDWYQQKPGQSPKLLINWASTRHTGVPDRFTGSGSGTDYTLTISSMQAEDLALYYCRQHYSTPFTFGSGTKLEIKRTVAAPSVFIFPPSDEQLKSGTASVVCLLNNFYPREAKVQWKVDNALQSGNSQESVTEQDSKDSTYSLSSTLTLSKADYEKHKVYACEVTHQGLSSPVTKSFNRGEC
modifications: amatoxin-linker moiety of formula (XIII) on heavy chain 265Cys (EU numbering); DAR printed as '-'
EC 50 [M], cytotoxicity in vitro on MEC-2 cells [1]: 1.19e-08 M | EC 50 [M], cytotoxicity in vitro on Raji cells [1]: 7.5e-10 M | EC 50 [M], cytotoxicity in vitro on Ramos cells [1]: 8.6e-11 M

B8: conjugate XXVI (antibody)
heavy: EIQLQQSGPELVKPGASVKVSCKASGYSFTDYNMYWVKQSHGKSLEWIGYIDPYNGDTTYNQKFKGKATLTVDKSSSTAFIHLNSLTSEDSAVYYCARSPYGHYAMDYWGQGTSVTVSSASTKGPSVFPLAPSSKSTSGGTAALGCLVKDYFPEPVTVSWNSGALTSGVHTFPAVLQSSGLYSLSSVVTVPSSSLGTQTYICNVNHKPSNTKVDKKVEPKSCDKTHTCPPCPAPEAAGGPSVFLFPPKPKDTLMISRTPEVTCVVVCVSHEDPEVKFNWYVDGVEVHNAKTKPREEQYNSTYRVVSVLTVLHQDWLNGKEYKCKVSNKALPAPIEKTISKAKGQPREPQVYTLPPSREEMTKNQVSLTCLVKGFYPSDIAVEWESNGQPENNYKTTPPVLDSDGSFFLYSKLTVDKSRWQQGNVFSCSVMHEALHNHYTQKSLSLSPGK
light: DIVMTQSHKLLSTSVGDRVSITCKASQDVSTAVDWYQQKPGQSPKLLINWASTRHTGVPDRFTGSGSGTDYTLTISSMQAEDLALYYCRQHYSTPFTFGSGTKLEIKRTVAAPSVFIFPPSDEQLKSGTASVVCLLNNFYPREAKVQWKVDNALQSGNSQESVTEQDSKDSTYSLSSTLTLSKADYEKHKVYACEVTHQGLSSPVTKSFNRGEC
modifications: amatoxin-linker moiety of formula (XV) on heavy chain 265Cys (EU numbering); DAR 3.15
EC 50 [M], cytotoxicity in vitro on MEC-2 cells [1]: 7.54e-09 M | EC 50 [M], cytotoxicity in vitro on Raji cells [1]: 2.04e-09 M | EC 50 [M], cytotoxicity in vitro on Ramos cells [1]: 3.2e-10 M
